Reference: patent US8986682B2, “Method to increase the absorption of unsaturated fatty acids by human infants” (Swedish Orphan Biovitrum AB (publ), priority 2010, dated 2015)
Several values for one entry are separate records, joined by “and”; a condition that tells them apart may be missing. Equal values may be shown once. Marks after values point to notes of the source that are not given here.

System: preterm infants born before week 32 of gestational age
Assay: Coefficient of fat absorption (CFA), fat balance of food and stool by gas chromatography, studies BVT.BSSL-020/-021
Format: in vivo, human
Conditions: PP
Method: Patients were randomized to infant formula/pasteurized breast milk supplemented with rhBSSL at a final concentration of 0.15 g/L, or to infant formula/pasteurized breast milk “supplemented” with sterile water for injection (as placebo) for the first 7 days. After a washout period of 2 days, the patient was “crossed over” to the other treatment regimen during a second 7-day treatment period. Collection of feces samples for CFA assessment were performed during the last 3 days (72 hours) of each treatment period.
The collection of feces for the determination of CFA was performed over a period corresponding to the fat, i.e., formula or milk, ingestion during 72 hours toward the end of each treatment period. Diapers supplied to each site were used for feces collection. During the two treatment periods, a carmine red tracer dye was given as a marker together with a meal (approximately at noon) on Day 4 and Day 13, respectively, and collection of stool commenced with the appearance of the first carmine red marker in the stool. The stool containing the first marker was collected and the date and time of the first stool collected was recorded on the CRF. At 72 hours following administration of the first red marker, the second carmine marker was given, and stool collection continued until the second carmine marker appeared. The stool containing the second marker was not collected, but the date and time of the appearance of the second marker was recorded on the CRF. Diapers were weighed before placement and after removal and the difference in weight was recorded on the CRF. The times of each collection and the elapsed duration of the entire collection period was also recorded on the CRF. The use of ointments for the treatment of skin irritation was prohibited during the stool collection period. Diapers were to be changed frequently during the collection period to keep the skin dry. Patients with skin rash severity leading to discontinuation of the stool collection were to be withdrawn from the study. Specific collection methods were provided in a separate laboratory manual. If applicable, vomit from the stool collection periods of both treatment periods was weighed. A small cloth/linen was weighed and placed under the head of each infant. When the cloth/linen was soiled with vomit, it was removed and re-weighed. If an additional cloth was used to remove vomit from the infant, that cloth was also weighed before and after use. The weight of vomit (total weight minus the weight of the cloth/linen) was recorded on the CRF. All other feed losses, e.g., formula or milk left in bottle, were measured and the amount accounted for in the calculation of the volume of formula consumed at each feeding.
Feces samples, the formula (study 020) and the milk aliquots (study 021) were analyzed by a central laboratory. Individual fatty acids, including the long-chain polyunsaturated fatty acids DHA and AA, were quantified in feces and feed by a gas chromatographic method following extraction by the Folch method. In both studies, the Omegawax 250 column (Supelco) was used for separation of the fatty acids. However, due to co-elution of DHA with nervonic acid (C24:1), which was only present in the breast milk, samples from patients of the per-protocol analysis set from study 021 were also analyzed using a SP-2380 column (Supelco) in order to quantify DHA for those samples from study 021. […] Total lipids were calculated as the sum of the individual fatty acids. (See Section 7.5.1). The same analytical principle was used to determine lipids in each of the batches of formula and aliquots of breast milk used in the study. […]

[1] = BVT.BSSL-020 (infant formula), 72-hour collection period
[2] = BVT.BSSL-021 (pasteurized breast milk)

B1: rhBSSL: recombinant human bile-salt-stimulated lipase, SEQ ID. NO. 1, expressed from recombinant CHO cells; used in both clinical trials (protein, listed as Homo sapiens)
chain: AKLGAVYTEGGFVEGVNKKLGLLGDSVDIFKGIPFAAPTKALENPQPHPGWQGTLKAKNFKKRCLQATITQDSTYGDEDCLYLNIWVPQGRKQVSRDLPVMIWIYGGAFLMGSGHGANFLNNYLYDGEEIATRGNVIVVTFNYRVGPLGFLSTGDANLPGNYGLRDQHMAIAWVKRNIAAFGGDPNNITLFGESAGGASVSLQTLSPYNKGLIRRAISQSGVALSPWVIQKNPLFWAKKVAEKVGCPVGDAARMAQCLKVTDPRALTLAYKVPLAGLEYPMLHYVGFVPVIDGDFIPADPINLYANAADIDYIAGTNNMDGHIFASIDMPAINKGNKKVTEEDFYKLVSEFTITKGLRGAKTTFDVYTESWAQDPSQENKKKTVVDFETDVLFLVPTEIALAQHRANAKSAKTYAYLFSHPSRMPVYPKWVGADHADDIQYVFGKPFATPTGYRPQDRTVSKAMIAYWTNFAKTGDPNMGDSAVPTHWEPYTTENSGYLEITKKMGSSSMKRSLRTNFLRYWTLTYLALPTVTDQEATPVPPTGDSEATPVPPTGDSETAPVPPTGDSGAPPVPPTGDSGAPPVPPTGDSGAPPVPPTGDSGAPPVPPTGDSGAPPVPPTGDSGAPPVPPTGDSGAPPVPPTGDAGPPPVPPTGDSGAPPVPPTGDSGAPPVTPTGDSETAPVPPTGDSGAPPVPPTGDSEAAPVPPTDDSKEAQMPAVIRF
BVT.BSSL-020 (infant formula)
  CFA (overall), LS Mean: 69.46%
  CFA (overall), LS Mean Difference (rhBSSL − Placebo): 2.08%
  CFA (overall), Maximum: 89.0%
  CFA (overall), Mean (SD): 69.55 (14.452) %
  CFA (overall), Median: 70.99%
  CFA (overall), Minimum: 36.8%
  CFA for C12:0: 89.70%
  CFA for C12:0, Difference (rhBSSL − Placebo): 1.18%
  CFA for C14:0: 76.56%
  CFA for C14:0, Difference (rhBSSL − Placebo): 3.19%
  CFA for C16:0: 46.95%
  CFA for C16:0, Difference (rhBSSL − Placebo): 0.45%
  CFA for C18:0: 42.20%
  CFA for C18:0, Difference (rhBSSL − Placebo): −1.10%
  CFA for C18:1: 76.24%
  CFA for C18:1, Difference (rhBSSL − Placebo): 2.37%
  CFA for C18:2 n-6: 83.91%
  CFA for C18:2 n-6, Difference (rhBSSL − Placebo): 4.99%
  CFA for C18:3 n-3: 87.79%
  CFA for C18:3 n-3, Difference (rhBSSL − Placebo): 4.42%
  CFA for C20:4 n-6 (AA): 82.96%
  CFA for C20:4 n-6 (AA), Difference (rhBSSL − Placebo): 7.14%
  CFA for C22:6 n-3 (DHA): 81.15%
  CFA for C22:6 n-3 (DHA), Difference (rhBSSL − Placebo): 6.85%
[1]
  Total Amount of Fat in Stool, Maximum: 15.0 g
  Total Amount of Fat in Stool, Mean (SD): 8.53 g and 8.53 (3.416) g
  Total Amount of Fat in Stool, Median: 8.63 g
  Total Amount of Fat in Stool, Minimum: 3.2 g
BVT.BSSL-020 Formula
  Coefficient of absorption of the sum of all LCPUFAs, LS mean: 82.2%
  Coefficient of absorption of the sum of all LCPUFAs, LS mean difference (rhBSSL-Placebo): 7.01%
  Coefficient of absorption of the sum of all polyunsaturated fatty acids, LS mean: 84.0%
  Coefficient of absorption of the sum of all polyunsaturated fatty acids, LS mean difference (rhBSSL-Placebo): 5.05%
  Coefficient of absorption of the sum of all saturated fatty acids, LS mean: 61.4%
  Coefficient of absorption of the sum of all saturated fatty acids, LS mean difference (rhBSSL-Placebo): 0.08%
  Coefficient of absorption of the sum of all unsaturated fatty acids, LS mean: 78.8%
  Coefficient of absorption of the sum of all unsaturated fatty acids, LS mean difference (rhBSSL-Placebo): 3.25%
BVT.BSSL-020 and 021 Combined
  Coefficient of absorption of the sum of all LCPUFAs, LS mean: 76.1%
  Coefficient of absorption of the sum of all LCPUFAs, LS mean difference (rhBSSL-Placebo): 7.33%
  Coefficient of absorption of the sum of all polyunsaturated fatty acids, LS mean: 77.3%
  Coefficient of absorption of the sum of all polyunsaturated fatty acids, LS mean difference (rhBSSL-Placebo): 5.82%
  Coefficient of absorption of the sum of all saturated fatty acids, LS mean: 63.8%
  Coefficient of absorption of the sum of all saturated fatty acids, LS mean difference (rhBSSL-Placebo): 2.25%
  Coefficient of absorption of the sum of all unsaturated fatty acids, LS mean: 74.7%
  Coefficient of absorption of the sum of all unsaturated fatty acids, LS mean difference (rhBSSL-Placebo): 4.22%
[2]
  CFA (overall), LS Mean: 68.56%
  CFA (overall), LS Mean Difference (rhBSSL − Placebo): 4.86%
  CFA (overall), Maximum: 93.2%
  CFA (overall), Mean (SD): 68.46 (15.333) %
  CFA (overall), Median: 75.41%
  CFA (overall), Minimum: 31.2%
  CFA for C12:0: 87.94%
  CFA for C12:0, Difference (rhBSSL − Placebo): 3.50%
  CFA for C14:0: 75.49%
  CFA for C14:0, Difference (rhBSSL − Placebo): 5.94* %
  CFA for C16:0: 63.88%
  CFA for C16:0, Difference (rhBSSL − Placebo): 4.46%
  CFA for C16:1: 96.24%
  CFA for C16:1, Difference (rhBSSL − Placebo): 0.45%
  CFA for C18:0: 46.11%
  CFA for C18:0, Difference (rhBSSL − Placebo): 3.63%
  CFA for C18:1: 71.01%
  CFA for C18:1, Difference (rhBSSL − Placebo): 4.77%
  CFA for C18:2 n-6: 71.26%
  CFA for C18:2 n-6, Difference (rhBSSL − Placebo): 6.98* %
  CFA for C18:3 n-3: 64.39%
  CFA for C18:3 n-3, Difference (rhBSSL − Placebo): 2.04%
  CFA for C18:3 n-6: 63.94%
  CFA for C18:3 n-6, Difference (rhBSSL − Placebo): 5.82%
  CFA for C20:1: 52.09%
  CFA for C20:1, Difference (rhBSSL − Placebo): 8.53%
  CFA for C20:2 n-6: 53.09%
  CFA for C20:2 n-6, Difference (rhBSSL − Placebo): 8.37* %
  CFA for C20:3 n-6 (sum of C20:3 n-6 and C20:3 n-3): 67.39§ %
